Columns and labels:
[1] = biological target: T1, NvfI (Aspergillus novofumigatus, UniProt A0A2I1BSX0); assay: X-ray crystal structure, […] Å; format: binding; details: bidentate Fe ligand; binary (state I, monomer B) and ternary complex with asnovolin A (state III, monomer A)
T1 construct: recombinant from pET28a in E. coli Rosetta 2(DE3) pLysS, Ni-NTA purified, MonoQ and Superdex 200; monomer in solution, apparent 34 kDa

[2] = tested on: COC(=O)[C@@H]1C(=O)C(C)=C2O[C@@]3(C[C@]2(C)[C@H]1C)[C@@H](C)CC[C@H]1C(C)(C)OC(=O)CC[C@@]13C; assay: purified protein; details: 50 mM HEPES pH 7.5, 1 μM FeSO4, 500 μM ascorbate, 500 μM α-KG, 30 °C, 2 min, 0.1 μM enzyme

T1 sequence (A0A2I1BSX0 whole entry): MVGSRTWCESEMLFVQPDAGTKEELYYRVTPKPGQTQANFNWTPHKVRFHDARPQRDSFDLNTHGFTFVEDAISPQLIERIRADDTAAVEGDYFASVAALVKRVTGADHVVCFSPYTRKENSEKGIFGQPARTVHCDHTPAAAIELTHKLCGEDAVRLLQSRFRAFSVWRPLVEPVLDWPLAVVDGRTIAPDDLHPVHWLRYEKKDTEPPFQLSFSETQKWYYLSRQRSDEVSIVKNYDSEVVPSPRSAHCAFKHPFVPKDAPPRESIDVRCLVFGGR

With `O=C(O)CCC(=O)C(=O)O` [α-KG] the “X-ray crystal structure, 1.9 Å” value [1] was “octahedral iron-center is coordinated by the bidentate α-KG and a water molecule”.

“NvfI (Aspergillus novofumigatus IBT 16806)” was tested, and the Km [2] was 25.9 ± 7.2 µM and the kcat [2] was 0.29 ± 0.04 s⁻¹.

From article PMC8292354, “Molecular insights into the endoperoxide formation by Fe(II)/α-KG-dependent oxygenase NvfI” (Nature Communications, 2021)
